T1: OLD (OAS-like domain of OASL) wild type (Homo sapiens, UniProt Q15646 1-350)
T1 sequence: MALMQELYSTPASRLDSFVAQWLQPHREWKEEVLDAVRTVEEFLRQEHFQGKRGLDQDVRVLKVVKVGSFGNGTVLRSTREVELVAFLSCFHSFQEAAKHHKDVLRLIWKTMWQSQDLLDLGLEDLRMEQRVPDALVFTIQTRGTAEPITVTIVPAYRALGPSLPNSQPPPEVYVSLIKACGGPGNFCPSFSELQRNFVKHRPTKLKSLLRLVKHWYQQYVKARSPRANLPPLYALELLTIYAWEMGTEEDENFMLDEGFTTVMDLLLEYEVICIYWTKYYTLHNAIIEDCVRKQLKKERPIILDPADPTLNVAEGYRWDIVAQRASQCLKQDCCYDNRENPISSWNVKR

B1: 18 bp dsRNA (dsRNA)
RNA 1: GGCUUUUGACCUUUAUGC
RNA 2: GCAUAAAGGUCAAAAGCC
B2: full-length OASL (human 2'-5' oligoadenylate synthetase-like protein), recombinant from insect cells (natural protein, UniProt Q15646 1-514, looked up)
chain: MALMQELYSTPASRLDSFVAQWLQPHREWKEEVLDAVRTVEEFLRQEHFQGKRGLDQDVRVLKVVKVGSFGNGTVLRSTREVELVAFLSCFHSFQEAAKHHKDVLRLIWKTMWQSQDLLDLGLEDLRMEQRVPDALVFTIQTRGTAEPITVTIVPAYRALGPSLPNSQPPPEVYVSLIKACGGPGNFCPSFSELQRNFVKHRPTKLKSLLRLVKHWYQQYVKARSPRANLPPLYALELLTIYAWEMGTEEDENFMLDEGFTTVMDLLLEYEVICIYWTKYYTLHNAIIEDCVRKQLKKERPIILDPADPTLNVAEGYRWDIVAQRASQCLKQDCCYDNRENPISSWNVKRARDIHLTVEQRGYPDFNLIVNPYEPIRKVKEKIRRTRGYSGLQRLSFQVPGSERQLLSSRCSLAKYGIFSHTHIYLLETIPSEIQVFVKNPDGGSYAYAINPNSFILGLKQQIEDQQGLPKKQQQLEFQGQVLQDWLGLGIYGIQDSDTLILSKKKGEALFPAS
notes: human OASL, full length (printed as 61 kDa); OAS-like domain (residues 1-350) followed by two ubiquitin-like domains; also called OAS-like protein

Assays:
[1] = molecular target: T1, OLD (OAS-like domain of OASL) wild type; assay: EMSA; OLD 2.4 uM, dsRNA 0-8.6 uM, protein stained; 1.5 mM Mg2+; 100 mM DL-malic acid pH 5.9, 200 (unit not given) Na2SO4, 300 mM NaCl, 1.5 mM MgCl2, 2 mM BME, 5% glycerol; 37 C 15 min; native PAGE in 0.5x TBE; details: protein: recombinant; tags: C-terminal 6xHis; blunt
[2] = molecular target: the molecule itself; assay: SEC; analytical, Superdex 200 PC3.2/30; OASL run in 50 mM Tris-HCl pH 9, 500 mM NaCl, 10% glycerol, 1.5 mM MgCl2, 1 M urea, 1 mM BME; calibrated with Blue Dextran and albumin

Binder	binding result [1]	binding result [2]
B1	binds	–
B2	–	binds

From PMC4446440, “Structural and functional analysis reveals that human OASL binds dsRNA to enhance RIG-I signaling” (Nucleic Acids Research, 2015)
